Measurements taken from paper PMC2890295 (Biochemistry, 2010).

Substrate: O=S(O)O
Assay: purified protein
Assay type: biochemical, Homo sapiens
Conditions: pH 8.0, cytochrome c as electron acceptor, no added chloride

B1: wt hSO (human sulfite oxidase) (Homo sapiens) (protein)
chain: ESTHIYTKEEVSSHTSPETGIWVTLGSEVFDVTEFVDLHPGGPSKLMLAAGGPLEPFWALYAVHNQSHVRELLAQYKIGELNPEDKVAPTVETSDPYADDPVRHPALKVNSQRPFNAEPPPELLTENYITPNPIFFTRNHLPVPNLDPDTYRLHVVGAPGGQSLSLSLDDLHNFPRYEITVTLQCAGNRRSEMTQVKEVKGLEWRTGAISTARWAGARLCDVLAQAGHQLCETEAHVCFEGLDSDPTGTAYGASIPLARAMDPEAEVLLAYEMNGQPLPRDHGFPVRVVVPGVVGARHVKWLGRVSVQPEESYSHWQRRDYKGFSPSVDWETVDFDSAPSIQELPVQSAITEPRDGETVESGEVTIKGYAWSGGGRAVIRVDVSLDGGLTWQVAKLDGEEQRPRKAWAWRLWQLKAPVPAGQKELNIVCKAVDDGYNVQPDTVAPIWNLRGVLSNAWHRVHVYVSP
B1 was tested. Which kcat did it give?
The kcat was 27 ± 2 s⁻¹.
